From US20240325557A1, “TREATMENT OF CANCER” (INNATE PHARMA, priority 2020, published 2024)
Where a chain is given by its changes, count along the chain named. Where two headings read alike, the source gives them in different places.

Columns and labels:
SUM190 cells [1] = experiment: In vitro ADC cytotoxicity, 5 days, CTG; type: cell-based, human; details: antibodies conjugated to ggfg-Dxd or PEG (8U)-Val-Ala-PAB-Exatecan, DAR=8
Protocol: We assessed the ability of the 5E7 antibody (mAb6) conjugated with camptothecin analogues (Dxd or Exatecan) to kill SUM190 cells. […] A first ADC was prepared in which antibodies were conjugated at 8 toxins per antibody (DAR=8) to a camptothecin analogue (Dxd) via a linker comprising an intracellularly cleavable tetrapeptide linker (GGFG) having the structure shown below, referred to as ggfg-Dxd:
A second ADC was prepared in which antibodies were conjugated at 8 toxins per antibody (DAR=8) to another camptothecin analogue (exatecan) via the cleavable linker having the structure below, referred to as PEG (8U)-Val-Ala-PAB-Exatecan:
Luminescence vs. Ab concentration was plotted on graph.
For each ADC, a concentration range of ADC was incubated with nectin-4-expressing cells. After incubation, CTG substrate was added at 1/1 ratio and the luminescent signal was read with a plate reader (Enspire). It allowed quantifying the ATP present (indicator of metabolically active cells) which was proportional to cell viability.

Nectin-4 on SUM185 cells = molecular target: T1, Nectin-4 on SUM185 cells (Homo sapiens, UniProt Q96NY8); experiment: Flow cytometry titration on SUM185 cells; type: binding; details: cells detached with trypsin
T1 construct: host or cells: SUM185
T1 sequence (Q96NY8 32-510): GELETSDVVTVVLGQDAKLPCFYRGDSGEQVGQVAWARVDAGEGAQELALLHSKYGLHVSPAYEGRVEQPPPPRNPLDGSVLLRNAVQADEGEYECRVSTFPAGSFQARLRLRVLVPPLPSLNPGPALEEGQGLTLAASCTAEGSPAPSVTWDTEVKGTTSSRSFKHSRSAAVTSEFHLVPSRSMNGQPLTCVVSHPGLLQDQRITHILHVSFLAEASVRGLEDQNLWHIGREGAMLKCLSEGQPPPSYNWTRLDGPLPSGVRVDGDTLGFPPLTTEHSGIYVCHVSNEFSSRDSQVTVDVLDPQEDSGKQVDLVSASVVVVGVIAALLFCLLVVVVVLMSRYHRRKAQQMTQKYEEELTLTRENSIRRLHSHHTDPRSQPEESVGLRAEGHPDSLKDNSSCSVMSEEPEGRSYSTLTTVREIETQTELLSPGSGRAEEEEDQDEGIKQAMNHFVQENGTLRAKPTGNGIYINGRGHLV
Protocol: In this experiment, the ability of anti-Nectin-4 Abs to bind to Nectin-4 on SUM185 cells (expressing relatively high levels of Nectin-4) was assessed by flow cytometry. […] Briefly, SUM185 cells were detached from the flask with trypsin (37° C. for 5 min) and then washed once with media. 50 000 cells were incubated with a concentration range of test antibodies starting from 20 μg/ml (8 points, dilution factor 4) for 30 minutes at 4° C. […] Cells were washed twice with ice-cold SB. Acquisition was done on a flow cytometer.

rat Nectin-4 = experiment: Flow cytometry species cross-reactivity on CHO cells; type: binding
rat Nectin-4, sequence (as listed by the source): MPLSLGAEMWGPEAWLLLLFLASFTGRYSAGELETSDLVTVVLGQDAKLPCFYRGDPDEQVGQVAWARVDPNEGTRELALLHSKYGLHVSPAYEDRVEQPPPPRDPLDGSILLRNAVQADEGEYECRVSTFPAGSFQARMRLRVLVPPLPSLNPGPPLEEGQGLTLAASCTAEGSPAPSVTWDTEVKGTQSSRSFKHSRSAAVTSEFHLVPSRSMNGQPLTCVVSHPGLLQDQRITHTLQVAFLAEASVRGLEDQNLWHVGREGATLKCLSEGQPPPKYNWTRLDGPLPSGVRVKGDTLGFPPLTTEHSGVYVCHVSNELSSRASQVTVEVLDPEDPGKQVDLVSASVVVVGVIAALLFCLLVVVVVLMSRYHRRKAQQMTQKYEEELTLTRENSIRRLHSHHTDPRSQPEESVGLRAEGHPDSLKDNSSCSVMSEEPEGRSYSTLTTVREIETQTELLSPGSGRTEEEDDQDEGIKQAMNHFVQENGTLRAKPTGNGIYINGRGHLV
Protocol: Anti-Nectin-4 antibodies were tested by flow cytometry for binding to different CHO cell lines made to express respectively the mouse, cynomolgus and rat Nectin-4 protein (including an N-terminal V5 tag not shown in the sequences below).

SUM185 cells = experiment: Fab-ZAP internalization assay (CTG cell viability); type: cell-based, human
Protocol: (§1) The ability of the anti-Nectin-4 antibodies to induce nectin-4 internalization was assessed on SUM190 cell lines expressing lower levels of nectin-4 and in SUM185 cells expressing higher levels of Nectin-4. The internalization was indirectly determined by using the Fab-ZAP human Internalization Kit (Advanced Targeting Systems) to allow the anti-Nectin-4 antibodies to target and eliminate Nectin-4 expressing cells, with measurement of cell viability using the CTG substrate (CellTiter-Glo® Luminescent Cell Viability Assay (Promega). Fab-ZAP is a chemical conjugate of goat anti-human monovalent antibody and the ribosome-inactivating protein, saporin. The antibodies used are affinity-purified polyclonal antibodies against both the heavy and light chain of human IgG. This secondary conjugate is used to evaluate the potential of a primary antibody to internalize.
(§2) Briefly, a concentration range of the anti-Nectin-4 antibodies or the controls were incubated with SUM190 or SUM185 cells. After 45-minute incubation at 4° C., the non-bound antibodies were washed away and Fab-ZAP was added on top of the cells. The newly formed complexes (anti-nectin-4 antibody+Fab-ZAP) internalized into the cells where the Saporin was released and stopped the protein synthesis leading to cell death. The internalization capability of the antibody was indirectly determined by the cell's viability: the more efficient was the cell killing; the better was the internalization capability of the antibody.

SUM190 cells [2] = experiment: Fab-ZAP internalization assay (CTG cell viability); type: cell-based, human
Protocol: as §1, §2

SUM190 cells [3] = experiment: In vivo efficacy of ADCs, SUM190 mouse model of human breast cancer (Example 9); details: single i.v. injection 3 mg/kg; antibodies conjugated to ggfg-Dxd, DAR=8
Protocol: When tumors reached a volume between 195 and 250 mm3, mice were randomized into groups of 9 mice for intravenous treatment with a single injection of 3 mg/kg of camptothecin ADCs. Tumor growth were followed twice a week. Kaplan Meier survival curves were established by using GraphPad Prism V7 software according to the following criteria: When the tumor volume reached 1500 mm3, mice were euthanized and considered dead on the day of sacrifice (D).

B1: 5E7 (antibody, V domains shown)
VH: QVQLQQPGAELVKPGASVKLSCKASGYIFTSYWMHWVKQRPGQGLEWIGEIDPSDSYTNYNQKFKGKATLTLDKSSSTTYMQLSSLTSEDSAVYYCVRGYGNYGDYWGQGTTLTVSS
VL: DVVMTQAAFSNPVTLGTSASISCRSSKSLLHSNGITYLYWYLQKPGQSPQLLIYQMSNLASGVPDRFSSSGSGTDFTLRISRVEAEDVGVYYCAQNLELPWTFGGGTKLEIK
SUM190 cells [1]
  killing of SUM190 cells (cell viability): more potent that mAb3 conjugated to camptothecin analogue
Nectin-4 on SUM185 cells
  binding profile on SUM185 cells: lower plateau for binding to the SUM185 cells
Rat Nectin-4
  binding to rat Nectin-4 expressing CHO cells: showed binding to rat Nectin 4 expressing cells
Rat Nectin-4; listed as mAb6
  binding to rat Nectin-4 expressing CHO cells: bind to rat Nectin-4
SUM185 cells
  induction of internalization: more efficient than enfortumab in inducing internalization
SUM190 cells [2]
  induction of internalization: as efficient as the enfortumab in inducing internalization
SUM190 cells [3]
  control of tumor growth: strong ability to prevent tumor growth

B2: 10B12: anti-Nectin-4 antibody, VH SEQ ID NO: 24, VL SEQ ID NO: 25, binds junction of domain C1 and V (antibody, listed as Mus musculus, V domains shown)
VH: B1 VH with I28T, L72V, T79A
VL: B1 VL with V2I
Nectin-4 on SUM185 cells
  binding profile on SUM185 cells: lower plateau for binding to the SUM185 cells
Rat Nectin-4
  binding to rat Nectin-4 expressing CHO cells: showed binding to rat Nectin 4 expressing cells
Rat Nectin-4; listed as mAb7
  binding to rat Nectin-4 expressing CHO cells: bind to rat Nectin-4
SUM190 cells [2]
  induction of internalization: as efficient as the enfortumab in inducing internalization

B3: N41 (antibody, V domains shown)
VH: QVQLKQSGPGLVQPSQSLSITCTVSGFSLTNYGVHWVRQSPGKGLEWLGVIWSGGSTDYNAAFISRLSISKDTSKSQVFFKMNSLQADDTAIYYCARELIHAMDNWGQGTSVTVSS
VL: DIQMTQSPASLSVSVGETVTITCRASENIYSNLAWYQQKQGNSPQLLVFAATNLADGVPSRFSGSGSGTQYSLKINSLQSEDFGTYYCQHFWGTPTFGGGTKLEIK
SUM190 cells [3]
  control of tumor growth: no longer showed the ability to control tumor growth
